This is an account of results in patent US20180142038A1.

The target of test [1] is Ab-A lot 9 (load; eluate from a ceramic hydroxyapatite column). As to the kind of experiment: AGV HTRF assay as in Example 6, load of the Ab-1 NHS Sepharose column.
Test [2] shares this target. Description: AGV HTRF assay as in Example 6, load of the Ab-1 Streptavidin Plus Ultralink column.
Test [3] addresses Ab-A lot 9, pooled flow-through of the Ab-1 functionalized GE NHS-activated Sepharose 4 Fast Flow resin. As to the kind of experiment: AGV HTRF assay as in Example 6, pooled flow-through of the Ab-1 NHS Sepharose column.
The target of test [4] is Ab-A lot 9, pooled flow-through of the Ab-1 functionalized Pierce Streptavidin Plus Ultralink resin. Description: AGV HTRF assay as in Example 6, pooled flow-through of the Ab-1 Streptavidin Plus Ultralink column.
A further test deals with Ab-A lot 1. As to the kind of experiment: AGV HTRF assay (antibody 3 nM, antigen 1 nM, Eu anti-rabbit Fc donor, anti-human XL665 acceptor), signal relative to Ab-A lot 2.

B1: Ab1 (antibody, V domains shown)
VH: QEQLVESGGGLVQPGASLTLTCTASGFSFSNTNYMCWVRQAPGRGLEWVGCMPVGFIASTFYATWAKGRSAISKSSSTAVTLQMTSLTVADTATYFCARESGSGWALNLWGQGTLVTVSS
VL: DPVLTQTPSPVSAAVGGTVTISCQASESVESGNWLAWYQQKPGQPPKLLIYYTSTLASGVPSRFKGSGSGAHFTLTISGVQCDDAATYYCQGAFYGVNTFGGGTEVVVKR
Take B1: the Glycovariant signal in Load (POC) in test [1] and in test [2] was 9.3 POC each time. Besides, the Glycovariant signal in Flow-Through (POC) turned out to be 6.3 POC in test [3] and 1.2 POC in test [4]. Besides, the percentage of control (POC), against Ab-A lot 2 (% of control (POC)) with Ab-A lot 1 was 25.
